Measurements reported in patent publication US20050074865.

Biological target: recombinant human TNFα (RDI) (UniProt P01375)
Sequence (P01375 77-233): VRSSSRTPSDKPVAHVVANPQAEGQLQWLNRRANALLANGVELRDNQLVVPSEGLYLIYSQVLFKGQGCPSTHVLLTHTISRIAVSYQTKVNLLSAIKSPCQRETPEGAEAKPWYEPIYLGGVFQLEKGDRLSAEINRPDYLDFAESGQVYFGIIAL

Sequence of Enterokinase (P98072 2-800): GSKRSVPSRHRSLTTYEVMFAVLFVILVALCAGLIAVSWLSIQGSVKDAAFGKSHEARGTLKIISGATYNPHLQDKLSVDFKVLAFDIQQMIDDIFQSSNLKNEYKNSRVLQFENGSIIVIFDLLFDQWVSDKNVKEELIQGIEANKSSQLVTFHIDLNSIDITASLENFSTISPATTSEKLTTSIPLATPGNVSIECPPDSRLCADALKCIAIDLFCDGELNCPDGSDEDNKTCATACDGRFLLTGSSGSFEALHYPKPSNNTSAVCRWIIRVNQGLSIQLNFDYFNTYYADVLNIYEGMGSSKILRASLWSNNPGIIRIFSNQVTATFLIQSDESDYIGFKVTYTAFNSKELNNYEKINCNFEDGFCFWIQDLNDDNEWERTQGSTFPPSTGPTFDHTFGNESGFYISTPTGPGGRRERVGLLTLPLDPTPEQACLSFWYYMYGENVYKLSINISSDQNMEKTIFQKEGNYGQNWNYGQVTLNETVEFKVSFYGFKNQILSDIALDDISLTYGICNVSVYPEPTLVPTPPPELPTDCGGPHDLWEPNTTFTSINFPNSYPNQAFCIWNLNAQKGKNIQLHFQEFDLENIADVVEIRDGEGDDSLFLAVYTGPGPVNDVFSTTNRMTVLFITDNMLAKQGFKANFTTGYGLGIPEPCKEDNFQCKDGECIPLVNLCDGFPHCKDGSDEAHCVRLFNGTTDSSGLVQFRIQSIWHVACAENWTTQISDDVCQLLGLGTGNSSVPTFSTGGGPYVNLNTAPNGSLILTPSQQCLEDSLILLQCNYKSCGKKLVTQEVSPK
Sequence of Enterokinase (P98072 801-1035): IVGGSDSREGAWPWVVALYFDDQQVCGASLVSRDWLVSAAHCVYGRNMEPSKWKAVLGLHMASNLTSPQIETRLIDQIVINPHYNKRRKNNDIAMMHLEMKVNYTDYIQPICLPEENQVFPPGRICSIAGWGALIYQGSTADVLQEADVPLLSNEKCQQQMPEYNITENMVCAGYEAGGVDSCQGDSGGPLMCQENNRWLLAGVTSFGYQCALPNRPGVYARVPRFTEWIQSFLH

| Substance | inactivation of TNFα bioactivity, L929 cytotoxicity bioassay after overnight digestion | proteolytic activity towards TNFα and effect in the L929 bioassay |
| --- | --- | --- |
| ADAM 10 | ADAM 10 (column: Proteases that did not inactivate TNF) | – |
| Enterokinase | Enterokinase (column: Proteases that did not inactivate TNF) | enterokinase has no proteolytic activity towards TNFα and no effect in the L929 bioassay |
| Furin | Furin (column: Proteases that did not inactivate TNF) | – |
| Kallikrein5 | Kallikrein5 (column: Proteases that did not inactivate TNF) | – |
| MMP3 | MMP3 (column: Proteases that did not inactivate TNF) | – |
| MT5-MMP | MT5-MMP (column: Proteases that did not inactivate TNF) | – |
| Plasmin | Plasmin (column: Proteases that did not inactivate TNF) | – |
| Urokinase | Urokinase (column: Proteases that did not inactivate TNF) | – |
